Residue numbers refer to the chain shown, from its start.
Key:
Settings in all cases: protein: recombinant; tags: N-terminal 6xHis; chain copies: 4; blunt
6xHis-SlmA-T33A = target: T1, 6xHis-SlmA-T33A (Escherichia coli, UniProt P0C093 1-198, T33A); experiment: BLI; 4 uM SlmA; BLI in 1x Pol buffer: 50 mM HEPES-NaOH pH 8.0, 200 mM KCl, 10 mM MgCl2, room temperature; 50 nM biotinylated SBS17 on streptavidin tips
T1 sequence: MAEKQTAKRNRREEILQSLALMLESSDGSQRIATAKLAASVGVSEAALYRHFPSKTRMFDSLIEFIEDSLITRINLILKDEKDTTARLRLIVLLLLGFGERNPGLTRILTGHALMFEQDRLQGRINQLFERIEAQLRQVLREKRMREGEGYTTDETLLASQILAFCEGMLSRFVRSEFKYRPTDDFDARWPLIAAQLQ

6xHis-SlmA-R73D = target: T2, 6xHis-SlmA-R73D (Escherichia coli, UniProt P0C093 1-198, R73D); experiment: BLI; 4 uM SlmA; binds like WT; BLI in 1x Pol buffer: 50 mM HEPES-NaOH pH 8.0, 200 mM KCl, 10 mM MgCl2, room temperature; 50 nM biotinylated SBS17 on streptavidin tips
T2 sequence: T1 sequence with A33T, R73D

6xHis-SlmA-F65A = target: T3, 6xHis-SlmA-F65A (Escherichia coli, UniProt P0C093 1-198, F65A); experiment: as above
T3 sequence: T1 sequence with A33T, F65A

6xHis-SlmA WT = target: T4, 6xHis-SlmA WT (Escherichia coli, UniProt P0C093 1-198); experiment: BLI; kon 3.24e4 1/(M*s), koff 2.04e-3 1/s, R2 0.98; BLI in 1x Pol buffer: 50 mM HEPES-NaOH pH 8.0, 200 mM KCl, 10 mM MgCl2, room temperature; 50 nM biotinylated SBS17 on streptavidin tips
T4 sequence: T1 sequence with A33T

B1: biotinylated SBS17-30mer (dsDNA)
DNA 1: CAAAAGTAAGTAAATGGTCACTAACGTTGA
DNA 2: TCAACGTTAGTGACCATTTACTTACTTTTG
- binding result (6xHis-SlmA-T33A): no binding
- binding result (6xHis-SlmA-R73D): binds
- binding result (6xHis-SlmA-F65A): binds
- Kd (6xHis-SlmA WT): 62.9 nM

Reference: paper PMC4117426, “SlmA Antagonism of FtsZ Assembly Employs a Two-pronged Mechanism like MinCD”
